# Measurements: patent US20130040360
# Tested on: full-length rat proMMP9(1-708) (SEQ ID NO:11)
# Sequence (chain, as listed by the source): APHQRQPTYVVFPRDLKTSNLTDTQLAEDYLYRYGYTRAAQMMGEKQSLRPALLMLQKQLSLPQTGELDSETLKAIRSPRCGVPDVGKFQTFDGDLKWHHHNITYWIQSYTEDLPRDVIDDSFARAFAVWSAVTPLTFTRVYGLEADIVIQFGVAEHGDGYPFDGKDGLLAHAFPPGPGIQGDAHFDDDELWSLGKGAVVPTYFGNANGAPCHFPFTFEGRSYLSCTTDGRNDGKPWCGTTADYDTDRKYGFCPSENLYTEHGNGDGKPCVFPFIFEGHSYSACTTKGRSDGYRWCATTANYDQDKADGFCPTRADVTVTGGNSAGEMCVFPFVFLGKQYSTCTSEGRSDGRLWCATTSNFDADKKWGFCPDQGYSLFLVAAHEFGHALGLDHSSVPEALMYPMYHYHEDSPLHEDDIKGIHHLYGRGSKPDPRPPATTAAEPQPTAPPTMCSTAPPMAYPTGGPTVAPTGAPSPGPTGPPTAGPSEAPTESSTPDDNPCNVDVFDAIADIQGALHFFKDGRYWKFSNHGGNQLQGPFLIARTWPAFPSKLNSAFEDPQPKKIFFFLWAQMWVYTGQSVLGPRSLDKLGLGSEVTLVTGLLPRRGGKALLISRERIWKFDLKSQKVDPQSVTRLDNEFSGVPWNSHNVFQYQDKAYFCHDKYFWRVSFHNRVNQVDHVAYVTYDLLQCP
# human catalytic MMP3, MMP3(100-265) (SEQ ID NO:8), sequence (chain, as listed by the source): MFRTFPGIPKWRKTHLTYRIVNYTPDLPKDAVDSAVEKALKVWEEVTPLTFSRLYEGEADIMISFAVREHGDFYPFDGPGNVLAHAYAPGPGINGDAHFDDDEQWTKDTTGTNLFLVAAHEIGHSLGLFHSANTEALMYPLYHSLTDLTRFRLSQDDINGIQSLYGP
substance,measurement,value
"human catalytic MMP3, MMP3(100-265) (SEQ ID NO:8)",proteolytic conversion of proMMP9 to catalytic MMP9,full-length rat proMMP9(1-708) (SEQ ID NO:11) converted to catalytic rat MMP9 by catalytic MMP3
